Experimental data as given in US20160271157A1, “BETA-CATENIN” (UCL BUSINESS PLC, priority 2013, published 2016).

B1: Wnt5A: Recombinant Wnt peptide purchased from R&D systems (protein, UniProt P41221 62-380, looked up)
Protein Wnt-5a: IIGAQPLCSQLAGLSQGQKKLCHLYQDHMQYIGEGAKTGIKECQYQFRHRRWNCSTVDNTSVFGRVMQIGSRETAFTYAVSAAGVVNAMSRACREGELSTCGCSRAARPKDLPRDWLWGGCGDNIDYGYRFAKEFVDARERERIHAKGSYESARILMNLHNNEAGRRTVYNLADVACKCHGVSGSCSLKTCWLQLADFRKVGDALKEKYDSAAAMRLNSRGKLVQVNSRFNSPTTQDLVYIDPSPDYCVRNESTGSLGTQGRLCNKTSEGMDGCELMCCGRGYDQFKTVQTERCHCKFHWCCYVKCKKCTEIVDQFVCK

Legend:
[1] = tested on: PC3 cells; experiment: Scratch wound assay; type: cell-based; conditions: wounded PC3 cells, ±Wnts and thapsigargin, vs control untreated cells
Experimental: PC3 cells were grown in 24 well, ImageLock plates (Essen Bioscience, MI) to confluency and scratched using a wound maker device (Essen Bioscience, MI). Imaging (at 2 h intervals) and quantitation of wound width was performed as described earlier (Wang at al., (2010) PLoS ONE 5, e10456) using Incucyte (Essen Bioscience, MI). The rate of wound closure (±Wnts and thapsigargin) was calculated by fitting the line using linear regression function in Origin software (Origin Lab Corp., MA). Statistical significance of difference between the slopes for untreated and treated samples was calculated using F-test.

[2] = tested on: PC3 cells; experiment: Intranuclear calcium and membrane potential imaging (Fluo4 and FM4-64); type: cell-based; conditions: Wnt5A 100 ng/ml
Experimental: The imaging protocol was developed in the inventor's laboratory and has been described in detail, elsewhere (Wang at al., (2010) PLoS ONE 5, e10456). Briefly, 100000-200000 PC3, MCF7, 253J or Cos 7 cells were plated on 35 mm FluoroDish (WPI) and grown for 48 h; calcium indicators Fluo-4 (Invitrogen) and FuraRed (Invitrogen) at 1 ng/ml were added to FluoroDish containing only 1 ml of culture medium and incubated for 15-20 min at 37° C. The culture medium was removed and washed (×2) and replaced with 1 ml PBS. Live cell calcium Imaging was performed on an Olympus FluoView FV 1000 confocal microscope (Olympus […]) equipped with a 20× dry objective (numerical aperture=0.75). Calcium indicators were excited with an argon laser line (488 nm) and emissions recorded in the green channel (500-560 nm) for Fluo-4 and red channel (600-700 nm) for FuraRed after addition of vehicle control (PBS) or Wnt X (30-600 ng/ml). Images were acquired every 1.1 or 2.2 seconds for up to 600-800s; image and data acquisition was performed using FluoView 1000 software (Olympus, UK). Fluorescent intensity was measured and data exported as a tab delimited file for further analysis using a spreadsheet. All imaging experiments were performed in duplicate; intracellular calcium at 100 ng/ml was measured in at least 3-12 different passages (passage numbers 25 to 37) of cell line for each Wnt ligand. […]

Row | Molecule | rate of wound closure [1] | delay of increase in intranuclear Ca2+ after start of increase in [Ca2+]i ([2]; Fluo4 and FM4) [s] | FM4 signal (depolarization) of cell and nuclear membranes ([2]; t=250s)
1 | C/C=C(/C)C(=O)O[C@H]1C(C)=C2[C@H]([C@@H]1OC(=O)CCCCCCC)[C@@](C)(OC(C)=O)C[C@H](OC(=O)CCC)[C@@]1(O)[C@H]2OC(=O)[C@@]1(C)O [thapsigargin, reference compound] | significant decrease |  | 
2 | B1 |  | ~33 | increase in the FM4 signal in the cell and nuclear membranes
